Laboratory results published in patent US20140096274A1 (published 2014).

B2: murine RANKL heterodimeric variant mD1 (mouse Dimer 1) (ligand)
chain 1: EAQPFAHLTINAASIPSGSHKVTLSSWYHDRGWADISNMTLSNGKLRVNQDGFYYLYANISFRHHETSGSVPTDYLQLMVYVVKTSIKIPSSHNLMKGGSTKNWSGNSEFHYYSINVGGFFKLRAGEEISIQVSNPSLLDPDQDATYFGAFKVQDID
chain 2: EAQPFAHLTINAASIPSGSHKVTLSSWYHDRGWAKISNMTLSNGKLRVNQDGYYYLYANICFRHHETSGSVPTDYLQLMVYVVKTSIKIPSSHNLMDGGSTKNWSGNSEFHFYSINVGGYFKLRAGEEISIQVSNPSLLDPDQDATYFGAFKVQDID
notes: range 160-316; Heterodimer of monomer A (His-tagged) and monomer B, co-expressed in E. coli; also called RANKL dimer 1; RANK-L Dimer 1; not shown: hexahistidine-tag fused to monomer A
B3: human RANK-Fc (Fc fusion, UniProt Q9Y6Q6 30-212, looked up)
chain: IAPPCTSEKHYEHLGRCCNKCEPGKYMSSKCTTTSDSVCLPCGPDEYLDSWNEEDKCLLHKVCDTGKALVAVVAGNSTTPRRCACTAGYHWSQDCECCRRNTECAPGLGAQHPLQLNKDTVCKPCLAGYFSDAFSSTDKCRPWTNCTFLGKRVEHHGTEKSDAVCSSSLPARKPPNEPHVYLP
notes: also called hRANK-Fc; hRANK-FC; not shown: Fc part of the bought fusion; not described
B4: murine RANKL heterodimeric variant mD2 (mouse Dimer 2) (ligand)
chain 1: EAQPFAHLVINAASIPSGSHKVTLSSWYHDRGWAKISNMTLSNGKLRVNQDGFYYLYANISFRHHETSGKVPTDYLQLMVYVVKTSIKIPSSHNLMKGGSTKNWSGNSEFHYYSINVGGFFKLRAGEEISIQVSNPSLLDPDQDATYFGAFKVQDID
chain 2: EAQPFAHLVINAASIPSGSHKVTLSSWYHDRGWAKISNMTLSNGKLRVNQDGYYYLYANICFRHHETSGKVPTDYLQLMVYVVKTSIKIPSSHNLMDGGSTKNWSGNSEFHFYSINVGGYFKLRAGEEISIQVSNPSLLDPDQDATYFGAFKVQDID
notes: range 160-316; Heterodimer of monomer A (His-tagged) and monomer B, co-expressed in E. coli; also called RANKL dimer 2; dRANKL D2; not shown: hexahistidine-tag fused to monomer A

Columns and labels:
[1] = molecular target: T1, murine RANK-Fc (mouse, UniProt O35305 31-214); assay: ELISA, immobilized mRANK-Fc, % binding normalised to the highest concentration
T1 construct: also called mRANK-Fc; mRANK-FC; not shown: Fc part of the bought fusion; not described
T1 sequence (looked up): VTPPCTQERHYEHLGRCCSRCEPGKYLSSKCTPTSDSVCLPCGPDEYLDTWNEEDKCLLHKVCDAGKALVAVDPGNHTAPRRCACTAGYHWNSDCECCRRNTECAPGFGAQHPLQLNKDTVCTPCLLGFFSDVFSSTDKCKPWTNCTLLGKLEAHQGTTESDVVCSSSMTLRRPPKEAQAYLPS

[2] = molecular target: B3; assay: SPR (Biacore), hRANK-Fc captured on protein A at 40 RU, 37 C, 1:1 Langmuir fit
Method: (§1) A Biacore experiment was performed to determine the kinetics of binding of the dimeric variants. hRANK-FC (Sigma) was captured in flow cell 2 at a level of 40 RU by a 60 s injection pulse of a 0.7 ug/ml hRANK-FC solution at a flow rate of 50 uL/min. Flow cell 1 served as reference cell. Subsequently, serial dilutions ranging from 562 nM to 100 pM of murine RANKL wt (R&D systems), or the purified RANKL dimers mD1 and mD2 were injected over both flow cells at 50 uL/min and 37° C. Binding was measured in real time. After each cycle the protein A surface was regenerated with a 30 s pulse of 10 mM Glycine pH 1.5. Kd values were calculated by fitting the data to a langmuir 1:1 binding model using the BIAevaluation software as described before (30). (Table 6 and FIG. 6).
(§2) Kinetic binding parameters were measured in real time using SPR. RANKL dimer binding curves were recorded using concentrations ranging from 100 pM to 562 nM dimer 1 (mD1) or dimer 2 (mD2), trimeric murine wild-type RANKL was used as a control. Measurements were performed at 37° C. The dissociation constants (KD) were determined by fitting the data to a Langmuir 1:1 interaction model. […] The binding off-rate constant (koff) of wild-type murine RANKL was ˜2 to 6 fold slower than for dimer 1 and dimer 2.

[3] = molecular target: T1, murine RANK-Fc; assay: competitive ELISA on RANK-Fc coated wells, competitor flag-mRANKL (0-53 nM), anti-flag detection, global four parameter fit
Method: The ability of dimer 1 and dimer 2 to compete with wild-type murine RANKL for binding to mRANK was investigated using a competitive ELISA. […] After washing off unbound RANKL, mRANK bound flag-mRANKL was detected by an anti-flag antibody. A RANKL dimer concentration dependant decrease in mRANK binding and right shift in the EC₅₀ of flag-mRANKL was observed (FIGS. 7 and 18B), indicating a competitive inhibition based mechanism. IC₅₀ values for dimer 1 and dimer 2 were calculated to be 4 nM by a global fit of the individual dose response curves using a four parameter logistic model.

[4] = molecular target: B3; assay: SPR on hRANK-Fc, 37 C
Method: as §1, §2

[5] = molecular target: T1, murine RANK-Fc; assay: competitive ELISA on mRANK-Fc coated wells, competitor 2 nM flag-mRANKL WT, anti-flag detection
Method: The ability of mD1 and mD2 to compete with mRANKL WT for binding to mRANK-Fc was investigated using a competitive ELISA. Serial dilutions of mD1 or mD2 (0-400 nM) and a fixed concentration (2 nM) of flag-mRANKL WT were added to mRANK-Fc coated wells. A dose-dependent decrease of flag-mRANKL WT binding was observed upon increasing concentrations of mD1 and mD2 (FIG. 18A).

[6] = molecular target: B4; assay: SPR single cycle kinetics, hRANK-Fc captured at 20-40 RU, 1:1 fit
Method: (§3) Considering the high similarity between human RANKL and murine RANKL (>88%) the murine dimers were also tested for hRANK binding. Binding to hRANK-Fc and mRANK-Fc (both from R&D Systems) was recorded for five consecutive concentrations of murine flag RANKL WT, D1 (mD1) or D2 (mD2) (˜0.3-15 nM) using SPR with a single cycle kinetics based approach. The capture level of mRANK-Fc and hRANK-Fc was low (20-40 RU) in order to ensure 1:1 binding. Both WT and the D1 and D2 dimeric variants bound with high affinity towards the mRANK receptor and to the human RANK receptor (FIG. 16: Table 8).

[7] = molecular target: B2; assay: as above
Method: as §3

[8] = molecular target: B4; assay: SPR (Biacore), hRANK-Fc captured on protein A at 40 RU, 37 C, 1:1 Langmuir fit
Method: as §1, §2

[9] = molecular target: B2; assay: as above
Method: as §1, §2

B1: trimeric murine wild-type RANKL (R&D systems) (ligand, mouse, UniProt O35235 158-316, looked up)
chain: KPEAQPFAHLTINAASIPSGSHKVTLSSWYHDRGWAKISNMTLSNGKLRVNQDGFYYLYANICFRHHETSGSVPTDYLQLMVYVVKTSIKIPSSHNLMKGGSTKNWSGNSEFHFYSINVGGFFKLRAGEEISIQVSNPSLLDPDQDATYFGAFKVQDID
notes: Bought soluble trimeric protein; also called murine RANKL wt; mRANKL WT
Q: For B1, which “EC50 (read off the curve)” value [1] is on record?
A: Its value is ~0.1 nM.

Q: What about the Ka [2] of the same binder?
A: Its Ka is 9.23e+09 M⁻¹.

Q: What about the Kd [2] of the same binder?
A: The Kd was 0.11 nM.

Q: And the koff [2]?
A: Its koff is 8.97e-05 s⁻¹.

Q: And the kon [2]?
A: The kon was 827000 M⁻¹ s⁻¹.

Q: Which IC50 [3] does the source give for B2 here?
A: The IC50 was 4 nM.

Q: And the “fold faster kon than wild-type murine RANKL” value [4]?
A: Its value is ~5 fold.

Q: What about the IC50 [5] of the same binder?
A: Its IC50 is 31 nM.

Q: B3 was tested. Which Kd [6] did it give?
A: The Kd was 0.0259 nM.

Q: And the koff [6]?
A: Its koff is 0.000173 s⁻¹.

Q: What about the kon [6] of the same binder?
A: Its kon is 6.69e+06 M⁻¹ s⁻¹.

Q: What about the Kd [7] of the same binder?
A: The Kd was 0.129 nM.

Q: And the koff [7]?
A: Its koff is 0.00108 s⁻¹.

Q: And the kon [7]?
A: The kon was 8.8e+06 M⁻¹ s⁻¹.

Q: And the Ka [8]?
A: Its Ka is 1.8e+10 M⁻¹.

Q: And the Kd [8]?
A: Its Kd is 0.0619 nM.

Q: What about the koff [8] of the same binder?
A: The koff was 0.000554 s⁻¹.

Q: What about the kon [8] of the same binder?
A: Its kon is 8.55e+06 M⁻¹ s⁻¹.

Q: And the Ka [9]?
A: The Ka was 2.33e+10 M⁻¹.

Q: And the Kd [9]?
A: Its Kd is 0.0446 nM.

Q: And the koff [9]?
A: Its koff is 0.000197 s⁻¹.

Q: And the kon [9]?
A: The kon was 4.52e+06 M⁻¹ s⁻¹.

Q: Which results are given for B4?
A: IC50 [3]: 4 nM; fold faster kon than wild-type murine RANKL [4]: ~10 fold; IC50 [5]: 28 nM
